Source: paper PMC3214626

Target: Slc1-FLAG (SycE-like chaperone 1; CT043) (Chlamydia trachomatis)
Assay: SEC

“Slc1-FLAG (SycE-like chaperone 1; CT043) (natural protein)” gave a stoichiometry N of 2.
